Eleven molecules from patent US20230235040A1 (ALMIRALL S A, published 2023) can be followed below.

Assay [1] deals with T1, hu-IL-36β (human IL-36β, N-terminally truncated active form R5-E157) (human).
T1 construct: Purification tag cleaved off; Biotinylated where captured; also called hu-IL-36b
T1 chain: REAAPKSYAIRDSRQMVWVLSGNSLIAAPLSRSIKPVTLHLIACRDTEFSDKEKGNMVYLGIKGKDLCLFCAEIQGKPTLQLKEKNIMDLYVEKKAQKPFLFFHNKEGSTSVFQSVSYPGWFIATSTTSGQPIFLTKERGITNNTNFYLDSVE
Kind of assay: SPR (Biacore 8K), biotinylated hu-IL-36β captured on CAP chip, Fab injected, 37°C. On the procedure: (§1) Briefly, a 1:4 dilution of Biotin CAPture Reagent (GE) into HBS-EP buffer (0.01 M HEPES pH 7.4, 0.15 M NaCl, 3 mM EDTA, 0.005% Surfactant P20) was applied to a CAP sensor chip at 2 uL/min flow rate. For kinetics measurements, 6 nM biotinylated human IL-36β was captured at 10 uL/min to achieve ˜50 response units in the second flow cell (FC2). FC1 was kept as a reference. […] The sensorgram was recorded and subject to reference and buffer subtraction before evaluating by BIACORE® 8K Evaluation Software (version 1.1.1.7442). Association rates (kₒₙ) and dissociation rates (koff) were calculated using a simple one-to-one Langmuir binding model.

The target of assay [2] is T1, hu-IL-36β (human IL-36β, N-terminally …). Kind of assay: cell-based or functional assay.
In assay [3] the target is T2, hu-IL-36γ (human IL-36γ, N-terminally truncated active form S18-D169) (human, UniProt Q9NZH8 18-169).
T2 construct: Purification tag cleaved off; Biotinylated where captured; also called hu-IL-36g
T2 sequence: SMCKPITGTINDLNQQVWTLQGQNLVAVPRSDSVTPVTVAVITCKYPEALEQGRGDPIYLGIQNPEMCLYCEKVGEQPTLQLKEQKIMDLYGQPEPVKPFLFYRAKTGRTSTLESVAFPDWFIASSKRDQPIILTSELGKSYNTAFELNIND
As to the kind of experiment: SPR (Biacore 8K), biotinylated hu-IL-36 captured on CAP chip, Fab injected, 37°C. On the procedure:
as §1, with “3” for “6”, “IL-36α and human IL-36γ” for “IL-36β”

For assay [4], the target named is T3, hu-IL-36α (human IL-36α, N-terminally truncated active form K6-F158) (human, UniProt Q9UHA7 6-158).
T3 construct: Purification tag cleaved off; Biotinylated where captured (SPR, some ELISAs); also called hu-IL-36a
T3 sequence: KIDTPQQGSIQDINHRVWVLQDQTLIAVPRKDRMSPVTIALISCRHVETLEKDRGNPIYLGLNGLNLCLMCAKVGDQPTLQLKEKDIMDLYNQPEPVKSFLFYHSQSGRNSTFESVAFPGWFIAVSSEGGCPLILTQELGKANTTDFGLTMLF
The description is as above. As to the method:
as §1, with “3” for “6”, “IL-36α and human IL-36γ” for “IL-36β”

Assay [5] deals with T3, hu-IL-36α (human IL-36α, N-terminally …). Kind of assay: phage competition ELISA: Fab on phage, soluble hu-IL-36α titrated against coated hu-IL-36α. As to the method:
(§2) Selected phages with top binding signal were purified to perform phage competition ELISA. The optimal phage concentration was incubated with serially-diluted human IL-36α or human IL-36γ in ELISA buffer in NUNC F plate for two hours. 80 μL of the mixture was transferred to human IL-36α or human IL-36γ coated wells for 15 min to capture unbound phage. The plate was washed with wash buffer (0.05% TWEEN®20 in PBS), and HRP-conjugated anti-M13 antibody (Sino biological, Cat #11973-MM05-H-50) was added in ELISA buffer for 30 min. The plates were washed and developed as described above. The absorbance at 450 nm was plotted as a function of antigen concentration in solution to determine phage IC50.

Assay [6] deals with T2, hu-IL-36γ (human IL-36γ, N-terminally …). As to the kind of experiment: phage competition ELISA: Fab on phage, soluble hu-IL-36γ titrated against coated hu-IL-36γ. As to the method: as §2
(In general: ELISA stands for enzyme-linked immunosorbent assay.)

B1: mAb6_2.5 Fab (Fab, V domains shown)
VH: ELQLQESGPGLVKPSETLSLTCTVSGGSITASNYYWGWIRQPPGKGLEWIGSIDYTGSTYYEPSLKSRVTISVDTSKNQFSLKLSSVTAADTAVYYCATGSYYETYLGFDVWGQGTLVTVSS
VL: ESVLTQPPSVSGAPGQRVTISCTGSSSNIGAHYDVHWYQQLPGTAPKLLIYGNDNRPSGVPDRFSGSKSGTSASLAITGLQAEDEADYYCQSYDYSLSGYVFGGGTKLTVL
notes: Recombinant Fab with 8xHis tag (Expi293F)
One may read the Kd as the constant that tells how readily two partners part at equilibrium. Low readings indicate tighter binding, high ones weaker binding. One may read the koff as the first-order rate constant of dissociation. A low value points to slow dissociation. Usually kon stands for the second-order rate constant of association. Low values mean slower complex formation, high ones faster complex formation. In assay [1], B1 yielded a Kd of 0.66 nM, a koff of 0.000476 s⁻¹ and a kon of 717000 M⁻¹ s⁻¹. In addition, the “IC50, IL-36-stimulated IL-8 secretion by HaCat cells” value (from here on “IC50 … by HaCat cells”) in assay [2] turned out to be 0.2 nM.

B2: mAb6 Fab (Fab, V domains shown)
VH: ELQLQESGPGLVKPSETLSLTCTVSGGSITSSNYYWGWIRQPPGKGLEWIGSIDYTGSTYYNPSLKSRVTISVDTSKNQFSLKLSSVTAADTAVYYCARGKYYETYLGFDVWGQGTLVTVSS
VL: ESVLTQPPSVSGAPGQRVTISCTGSSSNIGAGYDVHWYQQLPGTAPKLLIYGNTNRPSGVPDRFSGSKSGTSASLAITGLQAEDEADYYCQSYDISLSGWVFGGGTKLTVL
Regarding B2, in assay [2], the “IC50 … by HaCat cells” value was 0.15 nM.

B3: mAb2.9 Fab (Fab, V domains shown)
VH: ELQLQESGPGLVKPSETLSLTCTVSGGSISDSSYYWGWIRQPPGKGLEWIGSIYYTGETYYAPSLKSRVTISVDTSKNQFSLKLSSVTAADTAVYYCARVKYGVGVPRYFDPWGQGTLVTVSS
VL: ESVLTQPPSVSGAPGQRVTISCTGSSSNIGAHYDVHWYQQLPGTAPKLLIYGNDNRPSGVPDRFSGSKSGTSASLAITGLQAEDEADYYCQSYDYSLSGYVFGGGTKLTVL
notes: as for B1
For the molecule B3, in assay [3], the Kd worked out at 0.24 nM, the koff was found to be 0.000565 s⁻¹ and the kon worked out at 2.4e+06 M⁻¹ s⁻¹. In assay [4], this molecule displayed a Kd of 0.12 nM, a koff of 0.00026 s⁻¹ and a kon of 2.19e+06 M⁻¹ s⁻¹.

B4: mAb2.12 Fab (Fab, V domains shown)
VH: ELQLQESGPGLVKPSETLSLTCTVSGGSISESSYYWGWIRQPPGKGLEWIGSIYYTGETYYAPSLKSRVTISVDTSKNQFSLKLSSVTAADTAVYYCARVKYGVGVPRYFDPWGQGTLVTVSS
VL: ESVLTQPPSVSGAPGQRVTISCTGSSSNIGAHYDVHWYQQLPGTAPKLLIYGNDNRPSGVPDRFSGSKSGTSASLAITGLQAEDEADYYCQSYDYSLSGYVFGGGTKLTVL
notes: as for B1
As to B4, in assay [3], binding was characterised by a dissociation constant (Kd) of 0.28 nM, the off-rate (koff) worked out at 0.000503 s⁻¹ and the kon came to 1.81e+06 M⁻¹ s⁻¹. In assay [4], the Kd was 0.16 nM, the koff stood at 0.000277 s⁻¹ and the kon was determined as 1.7e+06 M⁻¹ s⁻¹.

B5: mAb6_2.7 Fab (Fab, V domains shown)
VH: ELQLQESGPGLVKPSETLSLTCTVSGGSITASNTYWGWIRQPPGKGLEWIGSIDYTGSTYYNPSLKSRVTISVDTSKNQFSLKLSSVTAADTAVYYCATGKYYETYLGFDVWGQGTLVTVSS
VL: ESVLTQPPSVSGAPGQRVTISCTGSSSNIGAHYDVHWYQQLPGTAPKLLIYGNDNRPSGVPDRFSGSKSGTSASLAITGLQAEDEADYYCQSYDYSLSGYVFGGGTKLTVL
notes: as for B1
In assay [1], B5 gave a Kd of 0.61 nM, a koff of 0.00018 s⁻¹ and a kon of 297000 M⁻¹ s⁻¹. The “IC50 … by HaCat cells” value in assay [2] turned out to be 0.2 nM.

B6: mAb2.1 Fab (phage-displayed) (Fab, V domains shown)
VH: ELQLQESGPGLVKPSETLSLTCTVSGGSISDSSYYWGWIRQPPGKGLEWIGSIYYTGNTYYNSSLKSRVTISVDTSKNQFSLKLSSVTAADTAVYYCARVRYGVGVPRYFDPWGQGTLVTVSS
VL: ESVLTQPPSVSGAPGQRVTISCTGSSSNIGAHYDVHWYQQLPGTAPKLLIYGNDNRPSGVPDRFSGSKSGTSASLAITGLQAEDEADYYCQSYDYSLSGYVFGGGTKLTVL
By IC50 is commonly meant the concentration that gives 50% inhibition. High values mean weaker potency, low ones greater potency. Consider B6, for which the IC50 in assay [5] turned out to be 1.03 nM; in assay [6], 4.86 nM.

B7: mAb2.8 Fab (Fab, V domains shown)
VH: ELQLQESGPGLVKPSETLSLTCTVSGGSISDSSYYWGWIRQPPGKGLEWIGSIYYTGETYYAPSLKSRVTISVDTSKNQFSLKLSSVTAADTAVYYCARLRYGVGVPRYFDPWGQGTLVTVSS
VL: ESVLTQPPSVSGAPGQRVTISCTGSSSNIGAHYDVHWYQQLPGTAPKLLIYGNDNRPSGVPDRFSGSKSGTSASLAITGLQAEDEADYYCQSYDYSLSGYVFGGGTKLTVL
notes: as for B1
In assay [3], B7 returned a Kd of 0.17 nM, a koff of 0.000301 s⁻¹ and a kon of 1.8e+06 M⁻¹ s⁻¹. In assay [4], binding was put at a Kd of 0.14 nM, the koff was 0.000254 s⁻¹ and the kon turned out to be 1.83e+06 M⁻¹ s⁻¹.

B8: mAb6_2.9 Fab (Fab, V domains shown)
VH: ELQLQESGPGLVKPSETLSLTCTVSGGSITSSNYYWGWIRQPPGKGLEWIGSIDYTGSTYYNPSLKSRVTISVDTSKNQFSLKLSSVTAADTAVYYCATGKYYETYLGFDVWGQGTLVTVSS
VL: ESVLTQPPSVSGAPGQRVTISCTGSSSNIGAHYDVHWYQQLPGTAPKLLIYGNDNRPSGVPDRFSGSKSGTSASLAITGLQAEDEADYYCQSYDYSLSGYVFGGGTKLTVL
notes: as for B1
In assay [1], B8 returned a Kd of 1.37 nM, a koff of 0.000411 s⁻¹ and an on-rate constant (kon) of 299000 M⁻¹ s⁻¹.

B9: mAb6_2.6 Fab (Fab, V domains shown)
VH: ELQLQESGPGLVKPSETLSLTCTVSGGSITASNYYWGWIRQPPGKGLEWIGSIDYTGSTYYEPSLKSRVTISVDTSKNQFSLKLSSVTAADTAVYYCATGNYYETYLGFDVWGQGTLVTVSS
VL: ESVLTQPPSVSGAPGQRVTISCTGSSSNIGAHYDVHWYQQLPGTAPKLLIYGNDNRPSGVPDRFSGSKSGTSASLAITGLQAEDEADYYCQSYDYSLSGYVFGGGTKLTVL
notes: as for B1
In assay [1], B9 yielded a Kd of 0.82 nM, a koff of 0.000705 s⁻¹ and a kon of 856000 M⁻¹ s⁻¹.

B10: mAb6_2.8 Fab (Fab, V domains shown)
VH: ELQLQESGPGLVKPSETLSLTCTVSGGSITASNYYWGWIRQPPGKGLEWIGSIDYTGSTYYNPSLKSRVTISVDTSKNQFSLKLSSVTAADTAVYYCASGKYYETYLGFDVWGQGTLVTVSS
VL: ESVLTQPPSVSGAPGQRVTISCTGSSSNIGAHYDVHWYQQLPGTAPKLLIYGNDNRPSGVPDRFSGSKSGTSASLAITGLQAEDEADYYCQSYDYSLSGYVFGGGTKLTVL
notes: as for B1
In assay [1], B10 gave a Kd of 1.08 nM, a koff of 0.000343 s⁻¹ and a kon of 317000 M⁻¹ s⁻¹. For the same molecule, the “IC50 … by HaCat cells” value in assay [2] was 0.33 nM.

B11: mAb6_2.10 Fab (Fab, V domains shown)
VH: ELQLQESGPGLVKPSETLSLTCTVSGGSITSSNYYWGWIRQPPGKGLEWIGSIDYTGSTYYQPSLKSRVTISVDTSKNQFSLKLSSVTAADTAVYYCARGNYYETYLGFDVWGQGTLVTVSS
VL: ESVLTQPPSVSGAPGQRVTISCTGSSSNIGAHYDVHWYQQLPGTAPKLLIYGNDNRPSGVPDRFSGSKSGTSASLAITGLQAEDEADYYCQSYDYSLSGYVFGGGTKLTVL
notes: as for B1
As to B11, in assay [1], binding was put at a Kd of 2.47 nM, the koff came to 0.00103 s⁻¹ and the on-rate constant (kon) is 415000 M⁻¹ s⁻¹.
